Source: US20230406885A1, “CYCLIC PEPTIDES FOR TRAPPING INTERLEUKIN-1 BETA” (MERCK SHARP & DOHME LLC, priority 2022, published 2023)
*1 amine or outer side, *2 acyl side, *3 side chain or, on linkers, in order; H or OH if unused. [ ]: non-standard residue; d: D form. F4bcpA = 3-[4-[(S)-2-amino-2-carboxyethyl]phenyl]bicyclo[1.1.1]pentane-1-carboxylic acid, O=C([C@H](Cc1ccc(C23CC(C(=O)[*:3])(C2)C3)cc1)N[*:1])[*:2]; dDabMe3 = [(R)-3-amino-3-carboxypropyl]-trimethylazanium, C[N+](C)(C)CC[C@@H](N[*:1])C(=O)[*:2]; F4pcCCA = (1R,4s)-4-(4-((S)-2-amino-2-carboxyethyl)phenyl)cyclohexane-1-carboxylic acid; Phe(4-(trans-4-COOH-cHex)) = N[C@@H](Cc1ccc([C@H]2CC[C@H](C(=O)O)CC2)cc1)C(=O)O; Pro(trans-4-NH2) = O=C([C@@H]1C[C@@H](N[*:3])CN1[*:1])[*:2]; Trp(βS-Me,4-F) = C[C@@H](c1c[nH]c2cccc(F)c12)[C@H](N)C(=O)O; Bip(4'-COOH) = N[C@@H](Cc1ccc(-c2ccc(C(=O)O)cc2)cc1)C(=O)O; 1Nal(3S-Me) = C[C@@H](c1cccc2ccccc12)[C@H](N)C(=O)O; Ala(indazol-1-yl) = N[C@@H](Cn1ncc2ccccc21)C(=O)O; Phe(4-COOH) = N[C@@H](Cc1ccc(C(=O)O)cc1)C(=O)O; Trp(6-F) = N[C@@H](Cc1c[nH]c2cc(F)ccc12)C(=O)O; Trp(7-Me) = Cc1cccc2c(C[C@H](N)C(=O)O)c[nH]c12; hTyr = N[C@@H](CCc1ccc(O)cc1)C(=O)O; hCha = N[C@@H](CCC1CCCCC1)C(=O)O; 4Pal = N[C@@H](Cc1ccncc1)C(=O)O; Cha = N[C@@H](CC1CCCCC1)C(=O)O; dDab = NCC[C@@H](N)C(=O)O; dNMeA = CN[C@H](C)C(=O)O

B1: SEQ ID NO: 189 (Example No. 189) (peptide)
peptide: cyclo([F4bcpA]W[Phe(4-COOH)]G[Pro(trans-4-NH2)][1Nal(3S-Me)]D[dNMeA]G[Bip(4'-COOH)][Cha]G[dDab][hCha])
SMILES: C[C@@H]1C(=O)NCC(=O)N[C@@H](Cc2ccc(-c3ccc(C(=O)O)cc3)cc2)C(=O)N[C@@H](CC2CCCCC2)C(=O)NCC(=O)N[C@H](CCN)C(=O)N[C@@H](CCC2CCCCC2)C(=O)N[C@@H](Cc2ccc(C34CC(C(=O)O)(C3)C4)cc2)C(=O)N[C@@H](Cc2c[nH]c3ccccc23)C(=O)N[C@@H](Cc2ccc(C(=O)O)cc2)C(=O)NCC(=O)N2C[C@H](N)C[C@H]2C(=O)N[C@@H]([C@@H](C)c2cccc3ccccc23)C(=O)N[C@@H](CC(=O)O)C(=O)N1C
B2: SEQ ID NO: 188 (Example No. 188) (peptide)
peptide: cyclo([F4bcpA]W[Phe(4-COOH)]G[Pro(trans-4-NH2)][1Nal(3S-Me)]D[dNMeA]G[Bip(4'-COOH)][Ala(indazol-1-yl)]G[dDab][hCha])
SMILES: C[C@@H]1C(=O)NCC(=O)N[C@@H](Cc2ccc(-c3ccc(C(=O)O)cc3)cc2)C(=O)N[C@@H](Cn2ncc3ccccc32)C(=O)NCC(=O)N[C@H](CCN)C(=O)N[C@@H](CCC2CCCCC2)C(=O)N[C@@H](Cc2ccc(C34CC(C(=O)O)(C3)C4)cc2)C(=O)N[C@@H](Cc2c[nH]c3ccccc23)C(=O)N[C@@H](Cc2ccc(C(=O)O)cc2)C(=O)NCC(=O)N2C[C@H](N)C[C@H]2C(=O)N[C@@H]([C@@H](C)c2cccc3ccccc23)C(=O)N[C@@H](CC(=O)O)C(=O)N1C
B3: SEQ ID NO: 193 (Example No. 193) (peptide)
peptide: cyclo([Phe(4-(trans-4-COOH-cHex))][Trp(6-F)][Phe(4-COOH)]G[Pro(trans-4-NH2)][1Nal(3S-Me)]D[dNMeA]G[Bip(4'-COOH)][4Pal]S[dDab][hCha])
SMILES: C[C@@H]1C(=O)NCC(=O)N[C@@H](Cc2ccc(-c3ccc(C(=O)O)cc3)cc2)C(=O)N[C@@H](Cc2ccncc2)C(=O)N[C@@H](CO)C(=O)N[C@H](CCN)C(=O)N[C@@H](CCC2CCCCC2)C(=O)N[C@@H](Cc2ccc([C@H]3CC[C@H](C(=O)O)CC3)cc2)C(=O)N[C@@H](Cc2c[nH]c3cc(F)ccc23)C(=O)N[C@@H](Cc2ccc(C(=O)O)cc2)C(=O)NCC(=O)N2C[C@H](N)C[C@H]2C(=O)N[C@@H]([C@@H](C)c2cccc3ccccc23)C(=O)N[C@@H](CC(=O)O)C(=O)N1C
B4: SEQ ID NO: 186 (Example No. 186) (peptide)
peptide: cyclo([Bip(4'-COOH)][Trp(7-Me)][Phe(4-COOH)]G[Pro(trans-4-NH2)][Trp(βS-Me,4-F)]D[dNMeA]G[Bip(4'-COOH)]KL[dA][hTyr])
SMILES: Cc1cccc2c(C[C@@H]3NC(=O)[C@H](Cc4ccc(-c5ccc(C(=O)O)cc5)cc4)NC(=O)[C@H](CCc4ccc(O)cc4)NC(=O)[C@@H](C)NC(=O)[C@H](CC(C)C)NC(=O)[C@H](CCCCN)NC(=O)[C@H](Cc4ccc(-c5ccc(C(=O)O)cc5)cc4)NC(=O)CNC(=O)[C@@H](C)N(C)C(=O)[C@H](CC(=O)O)NC(=O)[C@H]([C@@H](C)c4c[nH]c5cccc(F)c45)NC(=O)[C@@H]4C[C@@H](N)CN4C(=O)CNC(=O)[C@H](Cc4ccc(C(=O)O)cc4)NC3=O)c[nH]c12
B5: SEQ ID NO: 190 (Example No. 190) (peptide)
peptide: cyclo([F4bcpA]W[Phe(4-COOH)]G[Pro(trans-4-NH2)][1Nal(3S-Me)]D[dNMeA]G[Bip(4'-COOH)][Cha]G[dDab][hTyr])
SMILES: C[C@@H]1C(=O)NCC(=O)N[C@@H](Cc2ccc(-c3ccc(C(=O)O)cc3)cc2)C(=O)N[C@@H](CC2CCCCC2)C(=O)NCC(=O)N[C@H](CCN)C(=O)N[C@@H](CCc2ccc(O)cc2)C(=O)N[C@@H](Cc2ccc(C34CC(C(=O)O)(C3)C4)cc2)C(=O)N[C@@H](Cc2c[nH]c3ccccc23)C(=O)N[C@@H](Cc2ccc(C(=O)O)cc2)C(=O)NCC(=O)N2C[C@H](N)C[C@H]2C(=O)N[C@@H]([C@@H](C)c2cccc3ccccc23)C(=O)N[C@@H](CC(=O)O)C(=O)N1C
B6: SEQ ID NO: 192 (Example No. 192) (peptide)
peptide: cyclo([Phe(4-(trans-4-COOH-cHex))][Trp(6-F)][Phe(4-COOH)]G[Pro(trans-4-NH2)][1Nal(3S-Me)]D[dNMeA]G[Bip(4'-COOH)][4Pal]G[dDab][hCha])
SMILES: C[C@@H]1C(=O)NCC(=O)N[C@@H](Cc2ccc(-c3ccc(C(=O)O)cc3)cc2)C(=O)N[C@@H](Cc2ccncc2)C(=O)NCC(=O)N[C@H](CCN)C(=O)N[C@@H](CCC2CCCCC2)C(=O)N[C@@H](Cc2ccc([C@H]3CC[C@H](C(=O)O)CC3)cc2)C(=O)N[C@@H](Cc2c[nH]c3cc(F)ccc23)C(=O)N[C@@H](Cc2ccc(C(=O)O)cc2)C(=O)NCC(=O)N2C[C@H](N)C[C@H]2C(=O)N[C@@H]([C@@H](C)c2cccc3ccccc23)C(=O)N[C@@H](CC(=O)O)C(=O)N1C
B7: SEQ ID NO: 194 (Example No. 194) (peptide)
peptide: cyclo([Phe(4-(trans-4-COOH-cHex))][Trp(6-F)][Phe(4-COOH)]G[Pro(trans-4-NH2)][1Nal(3S-Me)]D[dNMeA]G[Bip(4'-COOH)][4Pal]S[dDabMe3][hCha])
SMILES: C[C@@H]1C(=O)NCC(=O)N[C@@H](Cc2ccc(-c3ccc(C(=O)O)cc3)cc2)C(=O)N[C@@H](Cc2ccncc2)C(=O)N[C@@H](CO)C(=O)N[C@H](CC[N+](C)(C)C)C(=O)N[C@@H](CCC2CCCCC2)C(=O)N[C@@H](Cc2ccc([C@H]3CC[C@H](C(=O)O)CC3)cc2)C(=O)N[C@@H](Cc2c[nH]c3cc(F)ccc23)C(=O)N[C@@H](Cc2ccc(C(=O)O)cc2)C(=O)NCC(=O)N2C[C@H](N)C[C@H]2C(=O)N[C@@H]([C@@H](C)c2cccc3ccccc23)C(=O)N[C@@H](CC(=O)O)C(=O)N1C
B8: SEQ ID NO: 187 (Example No. 187) (peptide)
peptide: cyclo([Bip(4'-COOH)]W[Phe(4-COOH)]G[Pro(trans-4-NH2)][Trp(βS-Me,4-F)]D[dNMeA]G[Bip(4'-COOH)]KL[dK](Ac)[hTyr])
SMILES: CC(=O)NCCCC[C@H]1NC(=O)[C@H](CC(C)C)NC(=O)[C@H](CCCCN)NC(=O)[C@H](Cc2ccc(-c3ccc(C(=O)O)cc3)cc2)NC(=O)CNC(=O)[C@@H](C)N(C)C(=O)[C@H](CC(=O)O)NC(=O)[C@H]([C@@H](C)c2c[nH]c3cccc(F)c23)NC(=O)[C@@H]2C[C@@H](N)CN2C(=O)CNC(=O)[C@H](Cc2ccc(C(=O)O)cc2)NC(=O)[C@H](Cc2c[nH]c3ccccc23)NC(=O)[C@H](Cc2ccc(-c3ccc(C(=O)O)cc3)cc2)NC(=O)[C@H](CCc2ccc(O)cc2)NC1=O

These binders were tested against Recombinant human IL-1β (BioLegend 579404) (human, UniProt P01584 117-269) (assay: cell-based or functional assay).

Row | Binder | MRC5 IC50 [nM]
1 | B1 | 0.019
2 | B2 | 0.016
3 | B3 | 0.012
4 | B4 | 0.038
5 | cyclo([F4pcCCA]W[Phe(4-COOH)]G[Pro(trans-4-NH2)][1Nal(3S-Me)]D[dNMeA]G[Bip(4'-COOH)][4Pal]G[dDab][hCha]) [SEQ ID NO: 191 (Example No. 191)] | 0.019
6 | B5 | 0.018
7 | B6 | 0.015
8 | B7 | 0.015
9 | B8 | 0.009
